Assay results as given in patent US20150098945A1 (Daiichi Sankyo, published 2015).
One block for each binder: values may come before it.

Key:
[1] = target: T1, N-terminal FLAG-tagged human ROBO4 extracellular region/domain deletion variant hROBO4-132 (human, UniProt Q8WZ75 132-1007); test: flow cytometry, HEK293 cells transfected with pCI-FLAG-hROBO4-132, antibody at 10 µg/mL, anti-mouse IgG FITC; control histogram IgG (Mouse IgG2a)
T1 construct: On transfected HEK293 cells; also called pCI-FLAG-hROBO4-132; pCI-hROBO4-132
T1 sequence: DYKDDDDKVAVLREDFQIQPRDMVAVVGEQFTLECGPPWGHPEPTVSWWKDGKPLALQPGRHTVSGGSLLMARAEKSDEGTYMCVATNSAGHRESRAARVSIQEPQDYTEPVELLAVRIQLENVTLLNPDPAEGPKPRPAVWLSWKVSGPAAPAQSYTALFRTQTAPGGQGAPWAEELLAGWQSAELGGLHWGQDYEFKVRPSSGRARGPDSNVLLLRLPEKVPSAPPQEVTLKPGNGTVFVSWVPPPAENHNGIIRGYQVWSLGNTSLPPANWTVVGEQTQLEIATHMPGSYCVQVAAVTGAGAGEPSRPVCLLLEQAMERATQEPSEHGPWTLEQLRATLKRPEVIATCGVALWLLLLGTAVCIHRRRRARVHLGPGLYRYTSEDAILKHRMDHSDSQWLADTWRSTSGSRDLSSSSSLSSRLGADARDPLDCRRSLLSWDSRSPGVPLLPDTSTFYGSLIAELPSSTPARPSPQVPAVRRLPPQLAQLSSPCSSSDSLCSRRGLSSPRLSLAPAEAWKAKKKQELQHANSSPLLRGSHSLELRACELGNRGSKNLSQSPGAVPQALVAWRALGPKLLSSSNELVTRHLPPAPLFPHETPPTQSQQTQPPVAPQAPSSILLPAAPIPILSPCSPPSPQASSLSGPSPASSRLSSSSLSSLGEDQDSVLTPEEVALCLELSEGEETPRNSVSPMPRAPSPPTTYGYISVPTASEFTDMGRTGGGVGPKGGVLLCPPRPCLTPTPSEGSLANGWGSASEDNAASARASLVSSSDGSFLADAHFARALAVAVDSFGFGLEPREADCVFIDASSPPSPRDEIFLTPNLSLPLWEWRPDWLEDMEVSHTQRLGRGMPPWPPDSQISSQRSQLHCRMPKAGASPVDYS
Protocol: HEK293 cells were inoculated at a concentration of 1.5×10⁶ cells/dish to a 60-mm dish (manufactured by Corning Inc.) and cultured overnight in a DMEM medium containing 10% FBS at 37° C. under 5% CO₂ conditions. […] On the next day, the expression vector-transfected cells were treated with TrypLE Express (manufactured by Life Technologies Corp.), washed with PBS containing 5% FBS, and then suspended in PBS containing 5% FBS. The obtained cell suspension was used in flow cytometry analysis.
Each cell suspension prepared in 4)-5-1 was centrifuged, and the supernatant was removed. Then, MAb1, a positive control Monoclonal ANTI-FLAG M2 antibody produced in mouse, or a negative control Mouse IgG2a was added at a concentration of 10 μg/mL to 2×10⁵ expression vector-transfected cells, and the resulting suspension was left standing at 4° C. for 1 hour. The cells were washed once with PBS containing 5% FBS. Then, Anti-Mouse IgG FITC conjugate diluted 1000-fold with PBS containing 5% FBS was added thereto, and the resulting suspension was left standing at 4° C. for 1 hour. […] Data was analyzed using Flowjo. The histogram of FITC fluorescence intensity was prepared. The antibody was determined to bind to a cell when the histogram of MAb1 was shifted to a stronger fluorescence intensity region compared with the histogram of the negative control Mouse IgG2a. […]

[2] = target: T2, N-terminal FLAG-tagged cynomolgus monkey ROBO4, cynoROBO4-1 (pCI-FLAG-cynoROBO4-1) (cynomolgus monkey, UniProt Q8WZ75 28-1007 (human entry)); test: flow cytometry (FC500), HEK293 cells transfected with pCI-FLAG-cynoROBO4-1, antibody at 10 µg/mL, FITC goat anti-human IgG Fc; control histogram IgG (human IgG)
T2 chain: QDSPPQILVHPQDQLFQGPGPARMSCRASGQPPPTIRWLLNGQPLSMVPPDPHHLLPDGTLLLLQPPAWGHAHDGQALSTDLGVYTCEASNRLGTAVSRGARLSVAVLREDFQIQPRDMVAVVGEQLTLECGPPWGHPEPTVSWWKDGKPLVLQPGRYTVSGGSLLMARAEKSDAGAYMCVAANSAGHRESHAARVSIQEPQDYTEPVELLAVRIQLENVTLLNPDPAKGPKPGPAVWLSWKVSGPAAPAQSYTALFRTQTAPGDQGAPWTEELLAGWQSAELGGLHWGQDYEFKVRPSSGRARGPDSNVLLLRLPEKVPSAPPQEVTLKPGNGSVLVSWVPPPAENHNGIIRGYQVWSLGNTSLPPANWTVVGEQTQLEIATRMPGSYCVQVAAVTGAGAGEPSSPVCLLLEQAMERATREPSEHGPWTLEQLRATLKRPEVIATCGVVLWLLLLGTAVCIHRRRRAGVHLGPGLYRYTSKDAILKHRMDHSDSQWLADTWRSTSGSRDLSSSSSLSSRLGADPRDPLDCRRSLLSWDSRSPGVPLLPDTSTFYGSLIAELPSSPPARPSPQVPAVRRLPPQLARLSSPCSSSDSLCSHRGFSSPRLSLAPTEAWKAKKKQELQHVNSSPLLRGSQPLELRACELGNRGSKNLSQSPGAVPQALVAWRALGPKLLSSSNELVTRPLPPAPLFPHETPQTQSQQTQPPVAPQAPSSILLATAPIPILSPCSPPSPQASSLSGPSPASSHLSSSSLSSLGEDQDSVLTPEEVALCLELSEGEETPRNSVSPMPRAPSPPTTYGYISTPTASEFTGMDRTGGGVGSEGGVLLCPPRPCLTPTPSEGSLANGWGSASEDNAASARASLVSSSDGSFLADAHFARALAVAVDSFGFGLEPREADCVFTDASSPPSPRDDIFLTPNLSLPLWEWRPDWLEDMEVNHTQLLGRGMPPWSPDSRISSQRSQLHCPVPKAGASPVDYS

binding result [1]: binds
B1: anti-ROBO4 mouse monoclonal antibody MAb1 (antibody, mouse IgG1, V domains shown)
VH: EVQLVESGGGLVKPGGSLKLSCAASGFTFSTYAMSWVRQTPEKRLEWVATISNGGTYTYYPDSVKGRFTISRDNAENTLYLQMSSLRSEDTAMYFCARLIYYDYLDYWGHGTTLTVSS
VL: DAVMTQTPLSLPVSLGDQASISCRSSQSLENSNGNTYLNWYFQKPGQSPQLLIYRVSNRFSGVLDRFSGSGSGTDFTLKISRVEAEDFGVYFCLQVTHVPWTFGGGTKLEIKR
notes: Mouse IgG1 (gamma1), kappa light chain, purified from hybridoma supernatant; also called parent antibody MAb1

binding result [2]: binds
B2: humanized MAb1 antibody H-2140 (antibody, human IgG2, kappa, V domains shown)
VH: EVQLVESGGGLVQPGGSLRLSCAASGFTFSTYAMSWVRQAPGKRLEWVATISQGGTYTYYPDSVKGRFTISRDNAKNTLYLQMNSLRAEDTAVYYCARLIYYDYLDYWGQGTLVTVSS
VL: DIVMTQSPLSLPVTLGEPASISCRSSQSLENSNGNTYLNWYLQKPGQSPQLLIYRVSNRFSGVPDRFSGSGSGTDFTLKISRVEAEDVGVYYCLQVTHVPWTFGPGTKVDIKR
notes: Human IgG2 / kappa constant regions; also called hMAb1-H4-type heavy chain + hMAb1-L1-type light chain
